In patent US20060008875A1 (UNIVERSITAIR MEDISCH CENTRUM ROTTERDAM, published 2006):

Biological target: T1, replication/repair factor RPA1 (human, UniProt P27694 1-616)
T1 construct: Endogenous protein in extracts of human TTD-A fibroblasts
Assay: anti-HA immunoprecipitation from extracts of TTD-A fibroblasts expressing p8-HA, immunoblot
Description: We cloned the human TFB5 cDNA from primary fibroblasts by virtue of its homology with yeast TFB5 using conventional techniques known in the art. An HA-tagged version of hTFB5 (p8-HA) was constructed via conventional molecular cloning methods (Maniatis et al, supra) and expressed in TTD-A fibroblasts and subsequently used for immuno-precipitations with anti-HA (FIG. 1a). Both the XPB core TFIIH and the associated CAK component (CDK7) were co-precipitated with p8-HA, in contrast to replication/repair factor RPA1 (data not shown). Conversely, anti-p44 (another core-TFIIH component) co-precipitated p8-HA. We conclude that, analogous to yeast, this small polypeptide is associated with TFIIH in mammalian cells.
Immunoprecipitation and immunoblot analysis. Whole cell extracts from MRC5SV, TTD1BRSV and TTD1BRSV+hTFB5HA were prepared by isolating cells from 6 petri dishes per cell line (13 cm). Collected cell-pellets were washed once in PBS prior to lysis by douncing (20 strokes using a 12.61 mm dounce homogenizer, Bellco Glass, INC., USA) in 2 ml of buffer A (50 mM Tris pH 7.9; 150 mM NaCl; 20% Glycerol; 0.1% NP40; 5 mM β-mercaptoethanol) supplemented with anti-proteases. […]

T1 sequence (P27694 whole entry): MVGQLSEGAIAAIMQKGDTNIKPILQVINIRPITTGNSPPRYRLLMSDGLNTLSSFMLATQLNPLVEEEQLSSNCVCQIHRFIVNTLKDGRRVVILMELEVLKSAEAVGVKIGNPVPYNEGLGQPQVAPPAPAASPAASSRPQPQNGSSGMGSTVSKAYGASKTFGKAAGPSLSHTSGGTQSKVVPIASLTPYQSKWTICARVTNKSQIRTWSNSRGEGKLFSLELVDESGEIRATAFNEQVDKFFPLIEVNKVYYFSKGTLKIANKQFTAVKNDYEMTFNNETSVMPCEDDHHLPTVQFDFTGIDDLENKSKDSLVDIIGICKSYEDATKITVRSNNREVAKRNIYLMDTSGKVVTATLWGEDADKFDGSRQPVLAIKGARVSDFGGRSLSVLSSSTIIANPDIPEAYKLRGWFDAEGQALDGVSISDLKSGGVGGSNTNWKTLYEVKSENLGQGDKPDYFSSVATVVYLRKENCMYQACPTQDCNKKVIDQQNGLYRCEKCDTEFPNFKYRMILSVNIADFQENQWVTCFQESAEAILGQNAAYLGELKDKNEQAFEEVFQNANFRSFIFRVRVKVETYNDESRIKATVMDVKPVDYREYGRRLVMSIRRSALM

binding result: no binding
B1: HA-tagged version of hTFB5 (p8-HA) (other)
chain: MVNVLKGVLIECDPAMKQFLLYLDESNALGKKFIIQDIDDTHVFVIAELVNVLQERVGELMDQNAFSLTQK
notes: C-terminally HA-tagged TTDA cloned in pCDNA3 and expressed in TTD1BRSV (TTD-A) fibroblasts; tested in whole cell extracts; also called TTDA-HA; hTFB5HA; not shown: C-terminal HA tag
